Columns and labels:
Assay in all cases: cell-based or functional assay
[1] = target: HIV-1 CH0505TF (CH505 transmitted/founder) Env on Env-pseudotyped virus produced in 293T cells (HIV-1)
[2] = target: HIV-1 CH0505TF.G458Y Env on Env-pseudotyped virus produced in 293T cells (HIV-1)
[3] = target: HIV-1 CH0505TF.N280D Env on Env-pseudotyped virus produced in 293T cells (HIV-1)
[4] = target: HIV-1 CH0505TF.S365P Env on Env-pseudotyped virus produced in 293T cells (HIV-1)
[5] = target: HIV-1 Env 426c, Env-pseudotyped virus produced in 293S GnTI- cells (Man5-enriched) (HIV-1 clade C strain 426c)
[6] = target: HIV-1 426c.TM (N276D/N460D/N463D) Env on Env-pseudotyped virus produced in 293T cells (HIV-1)
[7] = target: HIV-1 CH0505TF (CH505 transmitted/founder) Env on Env-pseudotyped virus produced in 293T cells (HIV-1); remark: listed apart in the source
[8] = target: CH0505TF.gly3.461 Env, Env-pseudotyped virus produced in 293T cells (HIV-1)
[9] = target: HIV-1 CH0505TF.gly4 Env on Env-pseudotyped virus produced in 293T cells (HIV-1)
[10] = target: HIV-1 426c.SM (N276D) Env on Env-pseudotyped virus produced in 293T cells (HIV-1)
[11] = target: HIV-1 Env 426c.TM4 (S278R.G471S.N460D.N463D), Env-pseudotyped virus produced in 293T cells (HIV-1 clade C strain 426c)
[12] = target: HIV-1 Env 426c.DM (N460D.N463D), Env-pseudotyped virus produced in 293S GnTI- cells (Man5-enriched) (HIV-1 clade C strain 426c)
[13] = target: HIV-1 clade C strain 426c Env on Env-pseudotyped virus produced in 293s/GnTI-/- cells (Man5-enrichment) (HIV-1)
[14] = target: HIV-1 Env 426c.DM (N460D.N463D), Env-pseudotyped virus produced in 293T cells (HIV-1 clade C strain 426c)
[15] = target: HIV-1 426c.SM (N276D) Env on Env-pseudotyped virus produced in 293s/GnTI-/- cells (Man5-enrichment) (HIV-1)
[16] = target: CH0505TF.gly3.276 Env, Env-pseudotyped virus produced in 293T cells (HIV-1)
[17] = target: CH0505TF.gly3.197 Env, pseudotyped virus produced in 293S GnTI- cells (HIV-1)
[18] = target: HIV-1 426c.DM (N460D/N463D) Env on Env-pseudotyped virus produced in 293T cells (HIV-1)
[19] = target: CH0505TF Env, pseudotyped virus produced in 293S GnTI- cells (HIV-1)
[20] = target: HIV-1 CH0505TF.gly3.197 Env on Env-pseudotyped virus produced in 293S/GnTI-/- cells (Man5-enrichment) (HIV-1)
[21] = target: CH0505TF.gly3.276 Env, pseudotyped virus produced in 293S GnTI- cells (HIV-1)
[22] = target: HIV-1 Env 426c.TM4 (S278R.G471S.N460D.N463D), Env-pseudotyped virus produced in 293S GnTI- cells (Man5-enriched) (HIV-1 clade C strain 426c)
[23] = target: CH0505TF.G458Y Env, pseudotyped virus produced in 293S GnTI- cells (HIV-1)
[24] = target: HIV-1 Env 426c.TM (N276D.N460D.N463D), Env-pseudotyped virus produced in 293T cells (HIV-1 clade C strain 426c)
[25] = target: CH0505TF.gly4 Env, Env-pseudotyped virus produced in 293T cells (HIV-1)
[26] = target: HIV-1 Env 426c, Env-pseudotyped virus produced in 293T cells (HIV-1 clade C strain 426c)
[27] = target: HIV-1 426c.DM (N460D/N463D) Env on Env-pseudotyped virus produced in 293s/GnTI-/- cells (Man5-enrichment) (HIV-1)
[28] = target: CH0505.w4.3 Env, Env-pseudotyped virus produced in 293T cells (HIV-1)
[29] = target: CH0505TF.G458Y Env, Env-pseudotyped virus produced in 293T cells (HIV-1)
[30] = target: CH0505TF Env, Env-pseudotyped virus produced in 293T cells (HIV-1)
[31] = target: HIV-1 Env 426c.TM (N276D.N460D.N463D), Env-pseudotyped virus produced in 293S GnTI- cells (Man5-enriched) (HIV-1 clade C strain 426c)
[32] = target: HIV-1 426c.TM (N276D/N460D/N463D) Env on Env-pseudotyped virus produced in 293s/GnTI-/- cells (Man5-enrichment) (HIV-1)
[33] = target: HIV-1 Env 426c.SM (N276D), Env-pseudotyped virus produced in 293T cells (HIV-1 clade C strain 426c)
[34] = target: HIV-1 clade C strain 426c Env on Env-pseudotyped virus produced in 293T cells (HIV-1)
[35] = target: HIV-1 CH0505TF Env on Env-pseudotyped virus produced in 293S/GnTI-/- cells (Man5-enrichment) (HIV-1)
[36] = target: HIV-1 CH0505TF.gly4 Env on Env-pseudotyped virus produced in 293S/GnTI-/- cells (Man5-enrichment) (HIV-1)
[37] = target: CH0505TF.gly3.197 Env, Env-pseudotyped virus produced in 293T cells (HIV-1)
[38] = target: CH0505TF.gly4 Env, pseudotyped virus produced in 293S GnTI- cells (HIV-1)
[39] = target: HIV-1 Env 426c.SM (N276D), Env-pseudotyped virus produced in 293S GnTI- cells (Man5-enriched) (HIV-1 clade C strain 426c)
[40] = target: HIV-1 CH0505TF.gly3.197 Env on Env-pseudotyped virus produced in 293T cells (HIV-1)
[41] = target: CH0505TF.gly3.461 Env, pseudotyped virus produced in 293S GnTI- cells (HIV-1)

VRC01 (antibody) was tested, and the IC50 (µg/ml) in TZM-bl [1] was 0.1 µg/mL, the IC50 (µg/ml) in TZM-bl [2] was > 25 µg/mL and the IC50 (µg/ml) in TZM-bl [3] was > 25 µg/mL. The IC50 (µg/ml) in TZM-bl [4] was 0.1 µg/mL, the IC50 (µg/ml) in TZM-bl [5] was 0.19 µg/mL and the ID50/IC50 in TZM-bl [6] was 0.03 µg/mL. The IC50 (ug/ml) in TZM-bl cells [7] was 0.09 µg/mL, the IC50 (µg/ml) in TZM-bl [8] was 1.98 µg/mL and the IC50 (ug/ml) in TZM-bl cells [9] was 0.002 µg/mL. For the same substance, the ID50/IC50 in TZM-bl [10] was 0.39 µg/mL, the IC50 (µg/ml) in TZM-bl [11] was 0.002 µg/mL and the IC50 (µg/ml) in TZM-bl [12] was 0.04 µg/mL. For the same substance, the ID50/IC50 in TZM-bl [13] was 0.19 µg/mL, the IC50 (µg/ml) in TZM-bl [14] was 0.41 µg/mL and the ID50/IC50 in TZM-bl [15] was 0.04 µg/mL. For the same substance, the IC50 (µg/ml) in TZM-bl [16] was 0.004 µg/mL, the IC50 (µg/ml) in TZM-bl [17] was 0.009 µg/mL and the ID50/IC50 in TZM-bl [18] was 0.41 µg/mL. It also gave an IC50 (µg/ml) in TZM-bl [19] of 0.03 µg/mL, an IC50 (ug/ml) in TZM-bl cells [20] of 0.009 µg/mL and an IC50 (µg/ml) in TZM-bl [21] of 0.003 µg/mL. For the same substance, the IC50 (µg/ml) in TZM-bl [22] was 0.007 µg/mL, the IC50 (µg/ml) in TZM-bl [23] was 0.91 µg/mL and the IC50 (µg/ml) in TZM-bl [24] was 0.03 µg/mL. It also gave an IC50 (µg/ml) in TZM-bl [25] of 0.002 µg/mL, an IC50 (µg/ml) in TZM-bl [26] of 2.2 µg/mL and an ID50/IC50 in TZM-bl [27] of 0.04 µg/mL. For the same substance, the IC50 (µg/ml) in TZM-bl [28] was 0.05 µg/mL, the IC50 (µg/ml) in TZM-bl [29] was > 25 µg/mL and the IC50 (µg/ml) in TZM-bl [30] was 0.1 µg/mL. For the same substance, the IC50 (µg/ml) in TZM-bl [31] was 0.015 µg/mL, the ID50/IC50 in TZM-bl [32] was 0.015 µg/mL and the IC50 (µg/ml) in TZM-bl [33] was 0.39 µg/mL. For the same substance, the ID50/IC50 in TZM-bl [34] was 2.2 µg/mL, the IC50 (ug/ml) in TZM-bl cells [35] was 0.03 µg/mL and the IC50 (ug/ml) in TZM-bl cells [36] was 0.001 µg/mL. It also gave an IC50 (µg/ml) in TZM-bl [37] of 0.023 µg/mL, an IC50 (µg/ml) in TZM-bl [38] of 0.001 µg/mL and an IC50 (µg/ml) in TZM-bl [39] of 0.04 µg/mL. The IC50 (ug/ml) in TZM-bl cells [40] was 0.023 µg/mL and the IC50 (µg/ml) in TZM-bl [41] was 0.015 µg/mL.
